Test results: the Human Domainome abundance scans (Beltran et al. 2025)
± gives the uncertainty stated by the source.

B1: 3'-5' exoribonuclease 1, residues 65 to 114; numbered along this chain, Q8IV48 (parent)
chain: VYKEIAITNGCINRMSKEELRAKLSEFKLETRGVKDVLKKRLKNYYKKQK

Variants of: B1
Test: abundance fitness (aPCA) (normalised: wild type 0, dead -1); higher = more abundant; growth selection in yeast, the domain comes from the species named
Details: Homo sapiens

Variant | abundance fitness
I7F | -0.198 ± 0.047
I7P | -0.067 ± 0.041
I7W | -0.287 ± 0.037
I7T | -0.1 ± 0.056
R14F | -0.881 ± 0.065
T31K | -0.05 ± 0.054
T31F | 0.038 ± 0.037
T31H | 0.143 ± 0.035
I5W | -0.225 ± 0.056
I5L | -0.051 ± 0.038
M15L | -0.317 ± 0.046
M15D | -0.981 ± 0.098
M15N | -0.789 ± 0.071
M15C | -0.826 ± 0.088
Y2C | 0.013 ± 0.062
Y2K | 0.041 ± 0.064
Y2I | 0.004 ± 0.052
Y2E | 0.048 ± 0.075
Y2F | -0.053 ± 0.054
L20S | -0.479 ± 0.044
L20M | -0.282 ± 0.047

Variant | abundance fitness
L20F | -0.512 ± 0.059
A22Q | -0.044 ± 0.06
A22V | -0.048 ± 0.038
A22S | -0.04 ± 0.039
A22G | -0.118 ± 0.034
A22W | -0.209 ± 0.046
L42W | -0.888 ± 0.049
L42Q | -0.912 ± 0.071
L42C | -0.925 ± 0.067
K23S | -0.318 ± 0.039
K23C | -0.158 ± 0.057
K23G | -0.861 ± 0.043
K23E | -0.56 ± 0.048
K23W | -0.234 ± 0.044
K23R | -0.101 ± 0.036
T8W | -0.513 ± 0.049
T8D | -0.274 ± 0.052
T8K | -0.07 ± 0.048
T8Q | -0.199 ± 0.048
T8P | -0.069 ± 0.042
K39V | -0.196 ± 0.063

Variant | abundance fitness
K39Y | -0.917 ± 0.09
K39C | -0.396 ± 0.067
G33S | -0.787 ± 0.038
K40C | -0.705 ± 0.052
K40L | -0.608 ± 0.037
K40V | -0.669 ± 0.038
L38M | -0.338 ± 0.066
L38G | -1.09 ± 0.1
V37F | -0.562 ± 0.053
V37Y | -0.853 ± 0.095
V37A | -0.037 ± 0.061
V37Q | -0.148 ± 0.075
V34W | -0.352 ± 0.077
V34P | -0.379 ± 0.055
V34C | -0.078 ± 0.059
V34Y | -0.244 ± 0.057
V34N | 0.039 ± 0.055
E30Q | -0.359 ± 0.051
E30F | -0.501 ± 0.04
E30W | -0.516 ± 0.054
E30K | -0.401 ± 0.069

Variant | abundance fitness
E30Y | -0.387 ± 0.041
E30S | -0.148 ± 0.033
V1T | -0.122 ± 0.12
V1R | -0.37 ± 0.093
V1K | -0.043 ± 0.43
V1N | 0.093 ± 0.15
Y45T | -1 ± 0.065
Y45I | -0.664 ± 0.08
Y45F | -0.094 ± 0.076
Y45V | -0.8 ± 0.039
Y45H | -0.048 ± 0.06
K50Q | -0.123 ± 0.073
K50W | -0.052 ± 0.12
K50I | -0.157 ± 0.07
K50E | -0.13 ± 0.091
K50A | -0.159 ± 0.12
K50D | -0.347 ± 0.074
N9P | 0.015 ± 0.045
N9E | -0.241 ± 0.062
N9A | -0.033 ± 0.043
N9H | -0.066 ± 0.052
